Test results taken from patent US20180037641A1.

How the values were obtained:
[1] = target: P301S human tau, T34 isoform (1N4R), of P301S tg mice (line PS19) (human) (UniProt P10636); experiment: cell-based or functional assay
RD(LM)-HA = RD(LM)-HA (UniProt P10636); experiment: cell-based or functional assay
RD(LM)-YFP = RD(LM)-YFP (UniProt P10636); experiment: cell-based or functional assay
[2] = target: tau RD aggregates passing between HEK293 cells in the propagation assay (RD(LM) and RD(ΔK) constructs); experiment: cell-based or functional assay
[3] = target: recombinant human tau, longest isoform hTau40 (441 aa) (human) (UniProt P10636); experiment: SPR (Biacore), tau immobilised on CM-5 chip, antibody injected 0.78-400 nM
[4] = target: recombinant mouse tau, longest isoform mTau40 (432 aa) (mouse) (UniProt P10637); experiment: as above
[5] = target: recombinant human tau, longest isoform hTau40 (441 aa) (human) (UniProt P10636); experiment: SPR (BIAcore 2000), tau immobilised on CM-5 chip, antibody injected 0.11-7.5 µg/ml, 1:1 Langmuir global fit
[6] = target: recombinant mouse tau, longest isoform mTau40 (432 aa) (mouse) (UniProt P10637); experiment: as above

Sequence of recombinant mouse tau, longest isoform mTau40 (432 aa) (mouse) (P10637 other isoform, or with tags, fused parts or gaps limits assumed): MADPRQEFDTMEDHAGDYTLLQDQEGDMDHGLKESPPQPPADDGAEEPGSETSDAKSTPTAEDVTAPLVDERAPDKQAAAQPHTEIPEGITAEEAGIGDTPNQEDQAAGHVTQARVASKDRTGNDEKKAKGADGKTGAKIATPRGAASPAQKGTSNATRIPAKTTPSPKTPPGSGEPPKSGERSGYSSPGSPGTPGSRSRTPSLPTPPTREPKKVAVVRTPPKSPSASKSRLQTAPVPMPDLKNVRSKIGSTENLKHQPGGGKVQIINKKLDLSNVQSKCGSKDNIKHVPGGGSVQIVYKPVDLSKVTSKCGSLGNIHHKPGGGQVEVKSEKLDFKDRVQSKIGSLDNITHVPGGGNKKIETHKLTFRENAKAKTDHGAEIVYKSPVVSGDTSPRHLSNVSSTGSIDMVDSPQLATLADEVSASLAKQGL

antibody concentration that significantly blocked uptake and seeding activity [1]	RD(ΔK)-YFP in the insoluble pellet fraction (detergent fractionation, Western blot) (RD(LM)-HA)	percentage of RD(LM)-YFP/mCherry dual positive cells (flow cytometry) (RD(LM)-YFP)	tau protein present in the cell medium (pull-down, Western blot) [2]	Kd [3]	koff [3]	kon [3]	Kd [4]	koff [4]	kon [4]	Kd [5]	koff [5]	kon [5]	Kd [6]	koff [6]	kon [6]	Substance
0.5 µg/mL	60 % decrease	1.31%	10 fold	99 pM	7.51e-06 s⁻¹	75500 M⁻¹ s⁻¹	100 pM	9.16e-06 s⁻¹	86100 M⁻¹ s⁻¹	99 pM	7.51e-06 s⁻¹	75500 M⁻¹ s⁻¹	100 pM	9.16e-06 s⁻¹	86100 M⁻¹ s⁻¹	HJ9.3 (antibody)
–	–	–	–	6900 pM	0.00107 s⁻¹	153000 M⁻¹ s⁻¹	2.24 pM	5.1e-07 s⁻¹	228000 M⁻¹ s⁻¹	6900 pM	0.00107 s⁻¹	153000 M⁻¹ s⁻¹	2.24 pM	5.1e-07 s⁻¹	228000 M⁻¹ s⁻¹	HJ9.4 (antibody)
